System: CC(C)(COP(=O)(O)OP(=O)(O)OC[C@H]1O[C@@H](n2cnc3c(N)ncnc32)[C@H](O)[C@@H]1OP(=O)(O)O)[C@@H](O)C(=O)NCCC(=O)NCCSC(=O)C[C@@](C)(O)CC(=O)O
Test: purified protein
Type: biochemical, Nakaseomyces glabratus
Settings: NADPH co-substrate, Tris-HCl; HMG-CoA 1-64 µM; MBP fusion

Substance | Km [µM]
CgHMGR (Rec-MBP-CgHMGR, catalytic domain of Candida glabrata HMGR) (Nakaseomyces glabratus CBS 138; D805A) | 11.84
CgHMGR (Rec-MBP-CgHMGR, catalytic domain of Candida glabrata HMGR) (Nakaseomyces glabratus CBS 138; E680Q) | 8.31
CgHMGR (Rec-MBP-CgHMGR, catalytic domain of Candida glabrata HMGR) (Nakaseomyces glabratus CBS 138; E711Q) | 18

From article PMC8531335, “Point mutations in Candida glabrata 3-hydroxy-3-methylglutaryl-coenzyme A reductase (CgHMGR) decrease enzymatic activity and substrate/inhibitor affinity” (Scientific Reports, 2021)
